Publication PMC9691366, “Modulating the pharmacokinetic profile of Actinium-225-labeled macropa-derived radioconjugates by dual targeting of PSMA and albumin” (Theranostics, 2022)

Legend:
[1] = system: LNCaP tumor-bearing SCID mice; experiment: Ex vivo biodistribution in LNCaP tumor-bearing SCID mice
From the text: (§1) The biodistribution experiments with [^225Ac]Ac-mcp-M-alb-PSMA and [^225Ac]Ac-mcp-D-alb-PSMA were accomplished using LNCaP tumor-bearing mice. The SCID male mice (ENVIGO, Indianapolis, IN, USA) 8 weeks old were subcutaneously xenografted into the right flank with 10∙10^6 LNCaP cells (ATCC, Manassas, VA, USA) mixed with Matrigel Matrix (Corning Inc., Corning, NY, USA) at a 1:1 ratio. The tumor growth was periodically monitored by caliper-based measurements. When the tumor volume reached 200-300 mm^3 (i.e., approx. 6 weeks after the xenografting of the cells), the mice were enrolled in the biodistribution study. All experimental animals were housed in a specific-pathogen-free animal facility and all experiments with animals were performed in accordance with appropriate legal norms (Czech Law No. 246/1992) and with the approval of the Ministry of Education, Youth and Sports (MSMT-35035/2019-3) and approval of the Ethical committee of Faculty of Medicine and Dentistry, Palacky University in Olomouc. The number of animals was reduced as much as possible (n = 3-4 per group and time point) for in vivo experiments in order to strictly follow 3Rs principle.
(§2) For the purpose of biodistribution studies, the ^225Ac-radioconjugates were diluted with saline. The diluted ^225Ac-radioconjugates were applied retro-orbitally (r.o.) to the experimental animals at a dose of 50 kBq per mouse corresponding to 10 pmol of the PSMA-inhibitor. The radioactivity application was carried out under 2% isoflurane anesthesia (FORANE, Abbott Laboratories, Abbott Park, IL, USA) to minimize animal suffering and to prevent animal motion. The mice were sacrificed by cervical dislocation 1, 4, 24, 48, 72, and 120 h (plus 168 h for [^225Ac]Ac-mcp-D-alb-PSMA) post-injection and organs of interest (blood, spleen, pancreas, stomach, intestine, kidneys, liver, heart, lungs, muscle, bone, and tumor) were collected. The organs were weighed, and their radioactivity was counted on an automatic gamma counter. The uptake of the ^225Ac-radioconjugates was expressed as a percentage of injected dose per gram of the corresponding organ (%ID/g). The area under the curve (AUC) was determined for both tested PSMA ligands from non-decay-corrected data obtained from the ex vivo biodistribution data of the tumors, kidneys, and blood.

[2] = as above; conditions: mouse, in vivo, 50 kBq per mouse; for tissue uptake at 1 h: 1 h p.i.; for tissue uptake at 4 h: 4 h p.i.; for tissue uptake at 24 h: 24 h p.i.; for tissue uptake at 48 h: 48 h p.i.; for tissue uptake at 72 h: 72 h p.i.; for tissue uptake at 120 h: 120 h p.i.
From the text: as §1, §2

[3] = non-decay corrected biodistribution data, mean ± SD

SMILES: O=C(O)CC[C@H](NC(=O)N[C@@H](CCCCNC(=O)[C@H](Cc1ccc2ccccc2c1)NC(=O)[C@H]1CC[C@H](CNC(=O)[C@H](CCCCn2cc(COc3cc(CN4CCOCCOCCN(Cc5cccc(C(=O)O)n5)CCOCCOCC4)nc(C(=O)O)c3)nn2)NC(=O)[C@H](CCC(=O)O)NC(=O)CCCc2ccc(I)cc2)CC1)C(=O)O)C(=O)O [[^225Ac]Ac-mcp-M-alb-PSMA, metal not drawn]
- AUCTu-to-AUCBl ([1]; mouse, in vivo): 26
- AUCTu-to-AUCKi ([1]; mouse, in vivo): 1.5
- AUCTu-to-AUCLi ([1]; mouse, in vivo): 29
- blood clearance: duration of excretion ([1]; mouse, in vivo): 24 h
- maximal tumor uptake compared to counterpart without dedicated albumin binder ([1]; mouse, in vivo): approximately four times higher
- AUC Blood [1, 3]: 132 ± 7.2 %ID/g.h
- AUC Kidneys [1, 3]: 2269 ± 288 %ID/g.h
- AUC Liver [1, 3]: 119 ± 4.6 %ID/g.h
- AUC Tumor [1, 3]: 3494 ± 194 %ID/g.h
- tissue to tissue ratio ([2]; male, SCID, total radioactivity): 1490
- tissue uptake at 1 h ([2]; blood uptake (AV)): 6.47 %ID/g
- tissue uptake at 4 h ([2]; blood uptake (AV)): 4.8 %ID/g
- tissue uptake at 24 h ([2]; blood uptake (AV)): 0.54 %ID/g
- tissue uptake at 48 h ([2]; blood uptake (AV)): 0.08 %ID/g
- tissue uptake at 72 h ([2]; blood uptake (AV)): 0.03 %ID/g
- tissue uptake at 120 h ([2]; blood uptake (AV)): 0.03 %ID/g
- tissue uptake at 1 h ([2]; femur uptake (AV)): 0.61 %ID/g
- tissue uptake at 4 h ([2]; femur uptake (AV)): 0.62 %ID/g
- tissue uptake at 24 h ([2]; femur uptake (AV)): 0.32 %ID/g
- tissue uptake at 48 h ([2]; femur uptake (AV)): 0.44 %ID/g
- tissue uptake at 72 h ([2]; femur uptake (AV)): 0.32 %ID/g
- tissue uptake at 120 h ([2]; femur uptake (AV)): 0.43 %ID/g
- tissue uptake at 1 h ([2]; heart uptake (AV)): 2.03 %ID/g
- tissue uptake at 4 h ([2]; heart uptake (AV)): 1.63 %ID/g
- tissue uptake at 24 h ([2]; heart uptake (AV)): 0.34 %ID/g
- tissue uptake at 48 h ([2]; heart uptake (AV)): 0.22 %ID/g
- tissue uptake at 72 h ([2]; heart uptake (AV)): 0.15 %ID/g
- tissue uptake at 120 h ([2]; heart uptake (AV)): 0.23 %ID/g
- tissue uptake at 1 h ([2]; intestine uptake (AV)): 0.6 %ID/g
- tissue uptake at 4 h ([2]; intestine uptake (AV)): 0.54 %ID/g
- tissue uptake at 24 h ([2]; intestine uptake (AV)): 0.81 %ID/g
- tissue uptake at 48 h ([2]; intestine uptake (AV)): 0.1 %ID/g
- tissue uptake at 72 h ([2]; intestine uptake (AV)): 0.12 %ID/g
- tissue uptake at 120 h ([2]; intestine uptake (AV)): 0.06 %ID/g
- tissue uptake at 1 h ([2]; kidneys uptake (AV)): 29.5 %ID/g
- tissue uptake at 4 h ([2]; kidneys uptake (AV)): 67.9 %ID/g
- tissue uptake at 24 h ([2]; kidneys uptake (AV)): 33.1 %ID/g
- tissue uptake at 48 h ([2]; kidneys uptake (AV)): 15.7 %ID/g
- tissue uptake at 72 h ([2]; kidneys uptake (AV)): 9.59 %ID/g
- tissue uptake at 120 h ([2]; kidneys uptake (AV)): 8.82 ± 4.4 %ID/g
- tissue uptake at 1 h ([2]; liver uptake (AV)): 1.44 %ID/g
- tissue uptake at 4 h ([2]; liver uptake (AV)): 1.43 %ID/g
- tissue uptake at 24 h ([2]; liver uptake (AV)): 1.08 %ID/g
- tissue uptake at 48 h ([2]; liver uptake (AV)): 1.19 %ID/g
- tissue uptake at 72 h ([2]; liver uptake (AV)): 1.08 %ID/g
- tissue uptake at 120 h ([2]; liver uptake (AV)): 1.27 %ID/g
- tissue uptake at 1 h ([2]; lung uptake (AV)): 6.27 %ID/g
- tissue uptake at 4 h ([2]; lung uptake (AV)): 4.99 %ID/g
- tissue uptake at 24 h ([2]; lung uptake (AV)): 2.19 %ID/g
- tissue uptake at 48 h ([2]; lung uptake (AV)): 1.77 %ID/g
- tissue uptake at 72 h ([2]; lung uptake (AV)): 1.47 %ID/g
- tissue uptake at 120 h ([2]; lung uptake (AV)): 1.73 %ID/g
- tissue uptake at 1 h ([2]; muscle uptake (AV)): 0.53 %ID/g
- tissue uptake at 4 h ([2]; muscle uptake (AV)): 0.51 %ID/g
- tissue uptake at 24 h ([2]; muscle uptake (AV)): 0.14 %ID/g
- tissue uptake at 48 h ([2]; muscle uptake (AV)): 0.07 %ID/g
- tissue uptake at 72 h ([2]; muscle uptake (AV)): 0.08 %ID/g
- tissue uptake at 120 h ([2]; muscle uptake (AV)): 0.12 %ID/g
- tissue uptake at 1 h ([2]; pancreas uptake (AV)): 0.57 %ID/g
- tissue uptake at 4 h ([2]; pancreas uptake (AV)): 0.57 %ID/g
- tissue uptake at 24 h ([2]; pancreas uptake (AV)): 0.26 %ID/g
- tissue uptake at 48 h ([2]; pancreas uptake (AV)): 0.1 %ID/g
- tissue uptake at 72 h ([2]; pancreas uptake (AV)): 0.06 %ID/g
- tissue uptake at 120 h ([2]; pancreas uptake (AV)): 0.07 %ID/g
- tissue uptake at 1 h ([2]; spleen uptake (AV)): 7.24 %ID/g
- tissue uptake at 4 h ([2]; spleen uptake (AV)): 3.4 %ID/g
- tissue uptake at 24 h ([2]; spleen uptake (AV)): 1.24 %ID/g
- tissue uptake at 48 h ([2]; spleen uptake (AV)): 1.31 %ID/g
- tissue uptake at 72 h ([2]; spleen uptake (AV)): 1.12 %ID/g
- tissue uptake at 120 h ([2]; spleen uptake (AV)): 1.43 %ID/g
- tissue uptake at 1 h ([2]; stomach uptake (AV)): 0.83 %ID/g
- tissue uptake at 4 h ([2]; stomach uptake (AV)): 0.58 %ID/g
- tissue uptake at 24 h ([2]; stomach uptake (AV)): 0.39 %ID/g
- tissue uptake at 48 h ([2]; stomach uptake (AV)): 0.17 %ID/g
- tissue uptake at 72 h ([2]; stomach uptake (AV)): 0.1 %ID/g
- tissue uptake at 120 h ([2]; stomach uptake (AV)): 0.11 %ID/g
- tissue uptake at 1 h ([2]; tumor uptake (AV)): 5.96 %ID/g
- tissue uptake at 4 h ([2]; tumor uptake (AV)): 18 %ID/g
- tissue uptake at 24 h ([2]; tumor uptake (AV)): 29.5 %ID/g
- tissue uptake at 48 h ([2]; tumor uptake (AV)): 36.5 %ID/g
- tissue uptake at 72 h ([2]; tumor uptake (AV)): 38.7 %ID/g
- tissue uptake at 120 h ([2]; tumor uptake (AV)): 46 %ID/g
- tissue uptake at 128 h ([2]; tumor uptake (highest accumulation), 128 h p.i.): 46 ± 7.77 %ID/g
